Assay results taken from patent publication US20150025225A1 (SHIONOGI, published 2015).

T1: Baboon EL-C2 tag (baboon, UniProt Q9Y5X9 21-500 (human entry), limits assumed)
T1 chain: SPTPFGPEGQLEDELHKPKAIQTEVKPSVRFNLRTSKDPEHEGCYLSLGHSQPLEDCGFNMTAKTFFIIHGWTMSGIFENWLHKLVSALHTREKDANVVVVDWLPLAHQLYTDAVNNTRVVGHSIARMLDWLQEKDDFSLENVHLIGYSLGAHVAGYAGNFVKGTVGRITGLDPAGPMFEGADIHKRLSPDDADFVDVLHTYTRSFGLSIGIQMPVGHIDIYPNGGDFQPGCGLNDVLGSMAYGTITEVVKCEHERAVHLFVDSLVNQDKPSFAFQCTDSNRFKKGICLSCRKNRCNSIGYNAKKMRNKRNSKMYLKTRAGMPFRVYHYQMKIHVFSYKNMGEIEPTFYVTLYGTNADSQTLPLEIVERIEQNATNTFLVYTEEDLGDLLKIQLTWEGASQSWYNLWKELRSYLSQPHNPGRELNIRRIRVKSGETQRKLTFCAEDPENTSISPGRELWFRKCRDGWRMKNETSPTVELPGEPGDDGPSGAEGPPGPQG

T2: cynomolgus monkey EL-C2 tag (cynomolgus monkey, UniProt Q9Y5X9 21-500 (human entry), limits assumed)
T2 chain: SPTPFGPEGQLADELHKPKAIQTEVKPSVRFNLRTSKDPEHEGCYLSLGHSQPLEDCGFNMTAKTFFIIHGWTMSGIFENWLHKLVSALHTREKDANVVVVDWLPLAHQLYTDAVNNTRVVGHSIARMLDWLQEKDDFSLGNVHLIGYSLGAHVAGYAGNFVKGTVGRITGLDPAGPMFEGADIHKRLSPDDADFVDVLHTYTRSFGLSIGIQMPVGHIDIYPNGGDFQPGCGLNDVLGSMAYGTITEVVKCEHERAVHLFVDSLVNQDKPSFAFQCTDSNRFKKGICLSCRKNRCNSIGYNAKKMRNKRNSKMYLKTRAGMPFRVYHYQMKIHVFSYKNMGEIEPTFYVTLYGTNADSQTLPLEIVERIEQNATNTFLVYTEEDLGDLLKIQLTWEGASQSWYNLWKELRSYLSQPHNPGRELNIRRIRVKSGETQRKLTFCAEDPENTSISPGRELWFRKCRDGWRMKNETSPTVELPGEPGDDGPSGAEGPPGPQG

T3: human EL[331-459]-mouse EL-C2 tag (human/mouse chimera, UniProt Q9WVG5 21-500 (mouse entry))
T3 chain: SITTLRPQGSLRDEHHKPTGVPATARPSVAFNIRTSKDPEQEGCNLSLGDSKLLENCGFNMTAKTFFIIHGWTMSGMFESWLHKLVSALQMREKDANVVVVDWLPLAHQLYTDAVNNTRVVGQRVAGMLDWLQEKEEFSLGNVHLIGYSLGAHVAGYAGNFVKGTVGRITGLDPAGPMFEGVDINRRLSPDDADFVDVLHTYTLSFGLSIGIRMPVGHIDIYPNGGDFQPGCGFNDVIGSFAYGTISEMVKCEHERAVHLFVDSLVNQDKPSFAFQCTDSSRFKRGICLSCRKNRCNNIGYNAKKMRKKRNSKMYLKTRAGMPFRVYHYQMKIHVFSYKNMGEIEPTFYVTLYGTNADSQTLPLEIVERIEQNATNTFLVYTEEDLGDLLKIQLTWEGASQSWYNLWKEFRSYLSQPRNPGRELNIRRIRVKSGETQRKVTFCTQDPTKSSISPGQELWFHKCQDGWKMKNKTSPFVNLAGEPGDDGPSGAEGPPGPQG

T4: rabbit EL-C2 tag (rabbit)
T4 chain: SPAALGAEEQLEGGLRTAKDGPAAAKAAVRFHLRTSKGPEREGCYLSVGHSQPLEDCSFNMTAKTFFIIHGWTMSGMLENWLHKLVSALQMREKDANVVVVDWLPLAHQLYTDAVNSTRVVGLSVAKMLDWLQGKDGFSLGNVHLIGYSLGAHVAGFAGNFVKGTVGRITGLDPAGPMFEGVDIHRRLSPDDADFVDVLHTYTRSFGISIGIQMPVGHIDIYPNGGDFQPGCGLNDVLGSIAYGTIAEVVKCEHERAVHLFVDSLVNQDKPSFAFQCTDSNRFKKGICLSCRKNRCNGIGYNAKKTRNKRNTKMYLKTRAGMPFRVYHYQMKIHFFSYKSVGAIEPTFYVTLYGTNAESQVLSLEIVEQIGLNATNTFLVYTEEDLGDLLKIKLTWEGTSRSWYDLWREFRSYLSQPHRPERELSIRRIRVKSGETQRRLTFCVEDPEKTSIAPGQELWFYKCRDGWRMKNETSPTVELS


Assays:
Baboon EL-C2 tag [1] = molecular target: T1, Baboon EL-C2 tag; assay: cell-based or functional assay
[2] = molecular target: T2, cynomolgus monkey EL-C2 tag; assay: cell-based or functional assay
[3] = molecular target: T3, human EL[331-459]-mouse EL-C2 tag; assay: cell-based or functional assay
rabbit EL-C2 tag = molecular target: T4, rabbit EL-C2 tag; assay: cell-based or functional assay
Baboon EL-C2 tag [4] = molecular target: T1, Baboon EL-C2 tag; assay: Biacore SPR; EL heparin extract captured by anti-C2-tag antibody on CM5, antibody as analyte, bivalent fit
Experimental: (§1) The binding affinities of anti-EL antibodies were measured using Biacore. Anti-C2-tag antibody was immobilized on a sensor chip CM5 (GE HealthCare) using amine-coupling and baboon EL heparin extract or cynomolgus monkey heparin extract diluted with HBS-P (GE Healthcare) was added and EL were captured on the sensor chip. Then anti-EL antibodies diluted with HBS-P were added and the binding affinities were calculated by bivalent fitting of BIAevaluation software (FIG. 9A-G).

[5] = molecular target: T2, cynomolgus monkey EL-C2 tag; assay: as above
Experimental: as §1

Baboon EL-C2 tag [6] = molecular target: T1, Baboon EL-C2 tag; assay: Biacore SPR; EL captured by anti-C2-tag antibody, antibody as analyte, bivalent fit; column head prints nM, kd/ka gives M
Experimental: as §1

[7] = molecular target: T2, cynomolgus monkey EL-C2 tag; assay: as above
Experimental: as §1

Binder	Neutralizing activity_IC50 (Baboon EL-C2 tag [1])	Neutralizing activity_IC50 [2]	Neutralizing activity_IC50 [3]	Neutralizing activity_IC50 (rabbit EL-C2 tag)	koff (Baboon EL-C2 tag [4])	kon (Baboon EL-C2 tag [4])	koff [5]	kon [5]	Kd (Baboon EL-C2 tag [6])	Kd [7]
12B10 antibody (antibody, IgG2a, V domains shown) VH: QVTLKESGPGILKPSQTLSLTCSFSGFSLSTSGMGVGWIRQPSGKGLEWLAHIWWNDEKYYNPSLKSQLTISKDTSRNQVFLKITSVDTADTATYYCARSYDGSPFPSWGQGTLVTVSA VL: DIQMTQSPSSLSASLGGKVTITCKASQDINKYIAWFQHKPGKGPRLLMAYPFTLQPGIPSRFSGNGSGRDYSFSISNLEPEDIATYYCLQYDNLLWTFGGGTRLEIK	7.1 nM	6.2 nM	15 nM	201 nM	0.00021 s⁻¹	350000 M⁻¹ s⁻¹	0.00018 s⁻¹	880000 M⁻¹ s⁻¹	0.6 nM	0.2 nM
47B2 antibody (antibody, IgG2a, V domains shown) VH: QVALKESGPGILQPSQTLSLTCSFSGFSLSTSGMGVGWIRQPSGKGLEWLAHIWWHGNKYYSTGLKSRLTISKDTSNNQVFLKIASVDTADTATYYCARISAGYPLDYWGQGTSVTVSS VL: DIQMTQSPSSLSASLGGKVTITCKASQDINKYIVWYQHKPGKGPRLLIHYTSTLQPGFPSRFSGSGSGRDYSLSITNLEPEDIATYYCLQYDNLLWTFGGGTKLEIK	4.6 nM	4.7 nM	5.3 nM	37 nM	0.00056 s⁻¹	140000 M⁻¹ s⁻¹	0.00033 s⁻¹	250000 M⁻¹ s⁻¹	4 nM	1.3 nM
